Test results from PMC3985956 (Biochemistry, 2014).

Molecular target: the molecule itself
Experiment: electron cryotomography with subvolume averaging

B1: CheA, full length, purified, for reconstitution with Tsr membranes (enzyme)
chain: MSMDISDFYQTFFDEADELLADMEQHLLVLQPEAPDAEQLNAIFRAAHSIKGGAGTFGFSVLQETTHLMENLLDEARRGEMQLNTDIINLFLETKDIMQEQLDAYKQSQEPDAASFDYICQALRQLALEAKGETPSAVTRLSVVAKSEPQDEQSRSQSPRRIILSRLKAGEVDLLEEELGHLTTLTDVVKGADSLSAILPGDIAEDDITAVLCFVIEADQITFETVEVSPKISTPPVLKLAAEQAPTGRVEREKTTRSNESTSIRVAVEKVDQLINLVGELVITQSMLAQRSSELDPVNHGDLITSMGQLQRNARDLQESVMSIRMMPMEYVFSRYPRLVRDLAGKLGKQVELTLVGSSTELDKSLIERIIDPLTHLVRNSLDHGIELPEKRLAAGKNSVGNLILSAEHQGGNICIEVTDDGAGLNRERILAKAASQGLTVSENMSDDEVAMLIFAPGFSTAEQVTDVSGRGVGMDVVKRNIQKMGGHVEIQSKQGTGTTIRILLPLTLAILDGMSVRVADEVFILPLNAVMESLQPREADLHPLAGGERVLEVRGEYLPIVELWKVFNVAGAKTEATQGIVVILQSGGRRYALLVDQLIGQHQVVVKNLESNYRKVPGISAATILGDGSVALIVDVSALQAINREQRMANTAA
  binding result: binds
